According to US20260078416A1, “ORTHOGONAL METABOLIC FRAMEWORK FOR ONE-CARBON UTILIZATION” (Mojia Biotech Pte. Ltd., priority 2021, published 2026):

B1: JGI20: HACS variant; GenBank PWB41796.1 (protein)
chain: MGQITGAQIVARALKQQGVEYMFGIVGIPVIPIAMFAQREGIKFYGFRNEQSASYAAAAVGYLTGRPGVCLGVSGPGMIHGVAGMANAWSNCWPMILIGGANDSYQNGQGAFQEAPQIEAARPFAKYCARPDSLARLPFYVEQAVRTSIYGRPGAVYLDLPGDIITGAMEEEDVHFPPRCPDAPRMMAPQESIDAAMAALKSAERPLVIVGKGAAYSRAENEVREFLETTQLPYLASPMGKGVMPDDHPLSIAPARSAALLGADVILLMGARLNWMMHFGHPPRFDPKVRVIQMDISAEEIGTNVPTEVALVGDAKAITTQLNASLKQQPWQYPSETTWWTGLRKKIDENGATVAEMMADESVPMSYYRVYREIRDLIPNDAIIQNEGASTMDIGRTLMPNFLPRHRLDAGSFGTMGVGLGQAIAAAAVHPDKHVFCIEGDSAFGFSGMEVETAARYGMKNITFIIINNNGIGGGPDTLDPTRVPPSAYTPNAHYEKMAEIYGGKGYFVTEPSQLRPALEEAIKADKPAIVNIMISATSQRKPQQFAWLTR
B2: JGI15: HACS variant; GenBank HAK63664.1 (protein)
chain: MAKSEGKVNGATLMARALQQQGVQYMFGIVGFPVIPIAIAAQREGITYIGMRNEQSASYAAQAASYLTGRPQACLVVSGPGVVHALAGLANAQVNCWPMLLIGGASAIEQNGMGAFQEERQVLLASPLCKYAHQVERPERIPYYVEQAVRSALFGRPGAAYLDMPDDVILGEVEEAAVRPAATVGEPPRSLAPQENIEAALDALQSAKRPLVIVGKGMAWSRAENEVRQFIERTRLPFLATPMGKGVMPDDHPLSVGGARSHALQEADLVFLLGARFNWILHFGLPPRYSKDVRVIQLDLSAEEIGNNRQAEVALVGDGKAIVGQLNQALSSRQWFYPAETPWREAIAAKIAGNQAAVAPMIADNTSPMNYYRVYRDIAARLPRNAIIVGEGANTMDIGRTQMPNFEPRSRLDAGSYGTMGIGLGFAVAAAAVHPGRPVIAVQGDSAFGFSGMEFETAARYGMPIKVIILNNGGIGMGSPAPRDGQPGMPHALSHDARYERIAEAFGGAGFYVTDSAELGPALDAAMAFKGPAIVNIKIAATADRKPQQFNWHG

Tests used:
[1] = In vitro kinetic assay of purified HACS variants; substrate propionaldehyde; format: biochemical; conditions: for Km: read-out: Km, app
Procedure: (§1) The kinetic assay was performed with a coupled reaction providing formyl-CoA from formate catalyzed by CoA transferase CaAbfT using acetyl-CoA as a CoA donor.
(§2) In vitro kinetic assay was comprised of 100 mM KPi pH 6.9, 10 mM MgCl2, 0.15 mM TPP, 2 mM acetyl-CoA, 1 μM CaAbfT, 0.25 μM HACS variants, and 20 mM sodium formate. Reactions were incubated at room temperature for 3 min to convert formate to formyl-CoA, and then specific concentration of aldehyde (specifically acetaldehyde or propionaldehyde here) was added to the reaction. After incubating another 3 min, 1/20 of the reaction volume of 10 M NaOH solution was added to terminate the reactions. After 30 min hydrolysis, 1/20 of the reaction volume of 10 N H2SO4 was added to neutralize the pH. Samples were centrifuged at 20817×g for 15 minutes and the supernatant analyzed by GC-MS as described below.
(§3) For this analysis, 0.15 of the reaction volume of internal standard methyl succinate was added to the samples. The resulting sample was extracted into 4 mL ethyl acetate by vigorous vortexing for 20 min. The organic phase was separated and evaporated to dryness under a stream of nitrogen. The residue was dissolved in 30 μL pyridine and 30 μL N,O-Bis(trimethylsilyl)trifluoroacetamide (BSTFA) and incubated at 60° C. for 15 minutes. Compound identification and analysis was performed by GC-MS using an Agilent 7890B Series Custom Gas Chromatography system equipped with a 5977B Inert Plus Mass Selective Detector Turbo EI Bundle (for identification) and an Agilent HP-5-ms capillary column (0.25 mm internal diameter, 0.25 μm film thickness, 30 m length). Samples were analyzed by GC (1 μL injection with a 20:1 split ratio) using helium as the carrier gas at a flowrate of 1.5 mL/min and the following temperature profile: initial 90° C. for 3 min; ramp at 15° C./min to 170° C.; ramp at 20° C./min to 300° C. and hold for 8 min. The injector and detector temperature were 250° C. and 350° C., respectively.
(§4) As hypothesized from Example 3 (FIG. 22B), JGI15 had lower Km with lower kcat with respect to formaldehyde in comparison with JGI20 (Table 8). With longer chain aldehydes JGI15 and JGI20 has lower Km (sub millimolar) to acetaldehyde and propionaldehyde compared to JGI23 and JGI24, while also lower Kcat as well. Which indicates they have stronger affinity to the aldehyde and lower enzymatic activity. JGI23 and JGI24 are promising as they have better activity (higher Kcat) which have a good potential to work better in vivo by improve their affinity to substrates (lower Km). Similarly, AcHACL as lower Km with acetone while JGI15 as better Kcat (Table 8).

[2] = test system: glycolate production from formaldehyde; test: High throughput resting-cell screening of first round HACS variants co-expressed with LmACR; format: cell-based, E. coli; conditions: 5 mM formaldehyde, 3 hours
Excerpt: We used glycolic acid (glycolate) productivity per cell density (uM glycolate/OD600) as indicator of HACS activity. Glycolate can be produced from formaldehyde as sole carbon source in the presence of active HACS variant and acyl-CoA reductase from Listeria monocytogenes (LmACR) (FIG. 20A). LmACR is shown to be capable of catalyzing oxidation reaction from formaldehyde to formyl-CoA (Chou, A., et al. Nat. Chem. Biol. 15:900-906 (2019)). HACS condenses formaldehyde and formyl-CoA to form glycolyl-CoA, which can then be hydrolyzed to glycolate via native thioesterase activities (FIG. 20A).
To prototype glycolate production pathway from formaldehyde in vivo, we constructed vectors overexpress various HACS candidates and LmACR, with both under control of the IPTG-inducible T7 promoter in pCDFDuet-1 and pETDuet-1, respectively (FIG. 20C). […]
Cells from the above pre-cultures were then centrifuged (4000 rpm, 22° C.), washed with the above minimal media without any carbon source, and resuspended with 1 mL of above minimal media containing indicated amounts of carbon source. […] After incubation at 30° C. for 3 hours, the cells were pelleted by centrifugation and the supernatant analyzed by HPLC or GC-MS as described below. […] The soluble cell lysates obtained from the supernatant were analyzed using SDS-PAGE. […]

[3] = In vitro kinetic assay of purified HACS variants, coupled with CaAbfT formyl-CoA generation; substrate formaldehyde; format: biochemical; conditions: for Km: read-out: Km, app
Procedure: as §1, §2, §3, §4

Molecule | Kcat, app [1] [s⁻¹] | Km [1] [µM] | glycolate productivity and relative HACS expression compared with RuHACL [2] | Kcat, app [3] [s⁻¹] | Km [3] [µM]
B1 | 17.35 ± 1.97 | 420 ± 60 | better glycolate productivity and relative HACS expression than the starting reference | 9.53 | 21400
B2 | 11.08 ± 0.02 | 200 ± 40 | better glycolate productivity and relative HACS expression than the starting reference | 5.98 | 3870
